Results published in the supplement of paper PMC7877785.
± gives the uncertainty stated by the source.

Experiment: self-splicing fitness, log relative to wild type (ln ratio); higher = more splicing; Tetrahymena group I intron in knt gene, E. coli kanamycin selection, DiMSum; sequences stand for … in CUCUCU…GGAGGGAAAAGUUAUCAGGCAUGCACCUGGUAGCUAGUCUUUAAACCAAUAGAUUGCAUCGGUUUAAAAGGCAAGACCGUCAAAUUGCGGGAAAGGGGUCAACAGCCGUUCAGUACCAAGUCUCAGGGGAAACUUUGAGAUGGCCUUGCAAAGGGUAUGGUAAUAAGCUGACGGACAUGGUCCUAACCACGCAGCCAAGUCCUAAGUCAACAGAUCUUCUGUUGAUAUGGAUGCAGUUCACAGACUAAAUGUCGGUCGGGGAAGAUGUAUUCUUCUCAUAAGAUAUAGUCGGACCUCUCCUUAAUGGGAGCUAGCGGAUGAAGUGAUGCAACACUGGAGCCGCUGGGAACUAAUUUGUAUGCGAAAGUAUAUUGAUUAGUUUUGGAGUACUCGUGGUCG
Method in brief: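 Fitness was computed with DiMSum as the error-weighted combination of replicate fold changes, kanamycin versus none, each normalised to wild type. The library randomised all eight intron nucleotides of the P1ex region, with the intron placed in the knt kanamycin-resistance gene on pET-22b(+) in E. coli BL21(DE3). Six replicate transformations were grown overnight at 37°C or 30°C on LB agar with or without 25 μg/mL kanamycin, plus 100 μg/mL carbenicillin, 50 μM IPTG and 0.2% rhamnose. Pooled colonies were amplicon-sequenced on an Illumina HiSeq 2500.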

| Sequence | self-splicing fitness (ln) (30 °C) | self-splicing fitness (ln) (37 °C) |
| --- | --- | --- |
| GAAUAGCAAUAUUACGGUAU | -3.54 ± 0.18 | -1.32 ± 0.16 |
| GAAUAGCAAUAUUACGGUUC | -3.69 ± 0.17 | -3.25 ± 0.33 |
| GAAUAGCAAUAUUACGUAAC | -0.941 ± 0.11 | -1.63 ± 0.12 |
| GAAUAGCAAUAUUACGUAGA | -3.35 ± 0.15 | -1.55 ± 0.11 |
| GAAUAGCAAUAUUACGUCAU | -1.07 ± 0.1 | -0.865 ± 0.13 |
| GAAUAGCAAUAUUACGUGAU | -3.48 ± 0.17 | -1.27 ± 0.11 |
| GAAUAGCAAUAUUACGUGGG | -3.86 ± 0.21 | -2.81 ± 0.19 |
| GAAUAGCAAUAUUACGUUGA | -2.6 ± 0.13 | -0.487 ± 0.09 |
| GACAAGCAAUAUUACGAAGG | -4.06 ± 0.19 | -2.27 ± 0.19 |
| GACAAGCAAUAUUACGAGAU | -3.73 ± 0.23 | -2.78 ± 0.23 |
| GACAAGCAAUAUUACGAUAU | -1.33 ± 0.099 | -1.4 ± 0.1 |
| GACAAGCAAUAUUACGAUUC | -0.734 ± 0.083 | -0.552 ± 0.12 |
| GACAAGCAAUAUUACGCAUA | -0.868 ± 0.11 | -0.12 ± 0.15 |
| GACAAGCAAUAUUACGCAUU | -2.91 ± 0.089 | -1.96 ± 0.11 |
| GACAAGCAAUAUUACGCCAA | -2.03 ± 0.14 | -1.61 ± 0.12 |
| GACAAGCAAUAUUACGCCUC | -2.68 ± 0.14 | -2.78 ± 0.28 |
| GACAAGCAAUAUUACGCGGG | -2.84 ± 0.095 | -2.52 ± 0.14 |
| GACAAGCAAUAUUACGCGUU | -4.47 ± 0.34 | -3 ± 0.35 |
| GACAAGCAAUAUUACGCUAA | -3.01 ± 0.23 | -2.11 ± 0.2 |
| GACAAGCAAUAUUACGCUCA | -0.336 ± 0.056 | 0.274 ± 0.073 |
| GACAAGCAAUAUUACGCUGC | -3.6 ± 0.16 | -2.87 ± 0.19 |
| GACAAGCAAUAUUACGCUGU | -3.61 ± 0.25 | -1.12 ± 0.2 |
| GACAAGCAAUAUUACGCUUU | -3.43 ± 0.42 | -2.11 ± 0.32 |
| GACAAGCAAUAUUACGGCAC | 0.362 ± 0.075 | -0.214 ± 0.11 |

| Sequence | self-splicing fitness (ln) (30 °C) | self-splicing fitness (ln) (37 °C) |
| --- | --- | --- |
| GACAAGCAAUAUUACGGCUA | -0.175 ± 0.074 | -0.187 ± 0.079 |
| GACAAGCAAUAUUACGGGGG | -3.58 ± 0.15 | -3.18 ± 0.2 |
| GACAAGCAAUAUUACGGGGU | -2.96 ± 0.12 | -3.16 ± 0.15 |
| GACAAGCAAUAUUACGGGUG | -0.472 ± 0.065 | -0.733 ± 0.081 |
| GACAAGCAAUAUUACGGUCU | -4.04 ± 0.16 | -2.42 ± 0.15 |
| GACAAGCAAUAUUACGGUUU | -1.79 ± 0.079 | -0.351 ± 0.074 |
| GACAAGCAAUAUUACGUAUG | -2.86 ± 0.11 | -1.23 ± 0.088 |
| GACAAGCAAUAUUACGUGAC | -1.47 ± 0.096 | -1.42 ± 0.12 |
| GACAAGCAAUAUUACGUUAA | -2.19 ± 0.12 | -1.71 ± 0.15 |
| GACAAGCAAUAUUACGUUAG | -3.84 ± 0.2 | -3.34 ± 0.19 |
| GACAAGCAAUAUUACGUUGA | -2.14 ± 0.09 | -1.48 ± 0.12 |
| GACCAGCAAUAUUACGAAGG | -3.3 ± 0.13 | -2.19 ± 0.18 |
| GACCAGCAAUAUUACGAGAU | -2.62 ± 0.12 | -1.05 ± 0.084 |
| GACCAGCAAUAUUACGAGGG | -3.24 ± 0.2 | -2.57 ± 0.21 |
| GACCAGCAAUAUUACGAUGU | -0.366 ± 0.055 | 0.0308 ± 0.072 |
| GACCAGCAAUAUUACGCACU | -0.104 ± 0.06 | 0.195 ± 0.079 |
| GACCAGCAAUAUUACGCAGG | -3.82 ± 0.21 | -2.49 ± 0.13 |
| GACCAGCAAUAUUACGCAUC | -0.629 ± 0.064 | -0.599 ± 0.076 |
| GACCAGCAAUAUUACGCCAC |  | -2.73 ± 0.46 |
| GACCAGCAAUAUUACGCCUC | -1.17 ± 0.097 | -0.623 ± 0.11 |
| GACCAGCAAUAUUACGCGCA | -0.663 ± 0.065 | 0.131 ± 0.093 |
| GACCAGCAAUAUUACGCUAU | -1.28 ± 0.074 | 0.126 ± 0.082 |
| GACCAGCAAUAUUACGCUGA | -1.04 ± 0.11 | -0.811 ± 0.097 |
| GACCAGCAAUAUUACGCUUA | -0.722 ± 0.053 | 0.0868 ± 0.064 |
